Measured values from IntAct's records for PubMed 25686249.

Columns and labels:
atg12_mouse Atg12 = atg12_mouse Atg12 (UniProt Q9CQY1)
pdc6i_human PDCD6IP = pdc6i_human PDCD6IP (UniProt Q8WUM4)
Sequence of pdc6i_human PDCD6IP (Q8WUM4 whole entry): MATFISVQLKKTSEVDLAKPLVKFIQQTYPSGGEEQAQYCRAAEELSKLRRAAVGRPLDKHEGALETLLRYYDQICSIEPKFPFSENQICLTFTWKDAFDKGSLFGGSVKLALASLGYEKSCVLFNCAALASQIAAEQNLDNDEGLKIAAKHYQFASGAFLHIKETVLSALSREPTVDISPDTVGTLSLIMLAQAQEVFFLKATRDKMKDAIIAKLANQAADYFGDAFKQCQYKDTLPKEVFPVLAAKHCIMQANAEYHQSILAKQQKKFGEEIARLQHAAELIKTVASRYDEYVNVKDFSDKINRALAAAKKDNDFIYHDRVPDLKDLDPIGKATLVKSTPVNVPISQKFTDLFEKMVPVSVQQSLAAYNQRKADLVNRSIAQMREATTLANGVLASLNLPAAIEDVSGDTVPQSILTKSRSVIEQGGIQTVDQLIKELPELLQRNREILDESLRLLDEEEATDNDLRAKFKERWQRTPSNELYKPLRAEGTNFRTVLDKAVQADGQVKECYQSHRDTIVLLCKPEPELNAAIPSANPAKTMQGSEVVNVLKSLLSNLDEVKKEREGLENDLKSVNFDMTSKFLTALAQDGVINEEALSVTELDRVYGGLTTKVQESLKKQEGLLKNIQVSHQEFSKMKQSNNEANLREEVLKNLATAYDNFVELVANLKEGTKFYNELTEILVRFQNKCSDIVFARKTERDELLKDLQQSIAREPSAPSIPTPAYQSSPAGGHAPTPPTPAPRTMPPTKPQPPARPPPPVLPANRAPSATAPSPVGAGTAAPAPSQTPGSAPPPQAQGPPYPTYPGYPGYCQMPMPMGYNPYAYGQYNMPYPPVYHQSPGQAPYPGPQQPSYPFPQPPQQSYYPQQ

Sequence of Ubiquitin-like-conjugating enzyme ATG3 (Mus musculus), Q9CPX6 K243R (Q9CPX6 whole entry K243R): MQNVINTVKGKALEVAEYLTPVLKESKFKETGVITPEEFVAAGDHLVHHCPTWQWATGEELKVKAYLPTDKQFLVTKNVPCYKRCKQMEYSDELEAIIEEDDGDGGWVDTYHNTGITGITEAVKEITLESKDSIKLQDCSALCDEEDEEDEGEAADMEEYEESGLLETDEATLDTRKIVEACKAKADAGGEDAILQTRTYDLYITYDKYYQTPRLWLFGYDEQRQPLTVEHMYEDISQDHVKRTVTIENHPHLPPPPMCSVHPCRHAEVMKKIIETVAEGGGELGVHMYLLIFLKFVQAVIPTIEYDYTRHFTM
Sequence of atg12_mouse Atg12 (Q9CQY1 whole entry): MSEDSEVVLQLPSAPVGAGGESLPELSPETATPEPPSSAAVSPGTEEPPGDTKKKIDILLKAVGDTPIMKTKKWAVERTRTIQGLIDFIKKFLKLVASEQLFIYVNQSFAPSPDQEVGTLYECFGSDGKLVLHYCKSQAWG

Substance: Ubiquitin-like-conjugating enzyme ATG3 (Mus musculus), Q9CPX6 K243R
- effect of a mutation on the interaction (atg12_mouse Atg12): disrupting interaction strength
- effect of a mutation on the interaction (pdc6i_human PDCD6IP): disrupting interaction strength
